Results: patent US20200223906A1 (Adimab, published 2020)

B1: ADI-18875 (antibody, V domains shown)
VH: QVQLQQWGAGLLKPSETLSLTCAVYGGSFSGYSWSWIRQTPGKGLEWIGEINHRGSTNYNPSLKSRVTMSVDTSQNQISLRVTSVTAADTAVYFCAGTNYGEVNTSNQYFFGMDVWGQGTTVTVSS
VL: DIQVTQSPSSLSASVGDRVTITCRASQSIGTYLNWYQQKPGKPPKLLIYAASNLESGVPSSFSGSGSGTHFTLTISSLQPEHFATYYCQQSYSTPLTFGGGTKVEIK
notes: full-length IgG from yeast; also called Antibody Number 232; Ab # 232
B2: ADI-18910 (antibody, V domains shown)
VH: QVQLVQSGAEVKKPGSSVKVSCKASGGTFSSYAISWVRQAPGQGLEWMGGIIPMFDIVDYAQKFQGRVTITADESTNTAYMELTSLRSEDTAVYYCARTAALGPPGTIVGYMDVWGKGTTVTVSS
VL: DIVMTQSPLSLPVTPGEPASISCRSSQSLLQSNGYNYLDWYLQKPGQAPQLLIYLGSNRASGVPDKFSGSGSGTDFTLKISRVEAEDVGVYYCMQTLQTPWTFGQGTKVEIK
notes: full-length IgG from yeast; also called Antibody Number 265; Ab # 265
B3: ADI-18894 (antibody, V domains shown)
VH: QVQLVQSGGGVVQPGRSLKHSCAASGFTFNNYAIHWVRQAPGKGLEWVAAISYDGSNEYYSNSVKGRFTISRDNSKYTLYLQMNSLRPEDTAVYYCARGASYYYVSSDLGYWGQGTLVTVSS
VL: QPVLTQPPSVSGAPGQRVTISCTGSSSNIGSGYDVHWYQQLPGTAPKVVIYGNINRPSGVPERFSGSKSGTSASLAITGLQAEDEADYYCQSYDSLSASWVFGGGTKLTVL
notes: full-length IgG from yeast; also called Antibody Number 249; Ab # 249
B4: ADI-18943 (antibody, V domains shown)
VH: QVQLQESGPGLVKPSETLSLTCSVSGASVTSREYYWGWIRQAPGKGLQWIASIHHSPFQSDGNPSLTSRVSSSVVTSKNQLALRLSSVTAADTAVYYCAGAFWEVWTGLYSPPFDFWGQGILVTVSS
VL: EIVMTQSPGTLSLSPGERATLSCWASQTVSSGYLAWYQQKPGQAPRLLIYGASTRATDIPDRFSGSGSGTGFTLTISRLEPEDLAVYYCQQYSSSPLTFGGGTKVEIK
notes: full-length IgG from yeast
B5: ADI-18967 (antibody, V domains shown)
VH: QVQLVQSGAEVKKPGASVKVACKVSGSSLTELSIQWVRLPPGKRLEWLGAFDAEDGAPIYSPKFQGRVTMTEDRSTETAYMEVTSLRSEDTALYYCATPLPAGALDKWGQGTLVTVSS
VL: DIQMTQSPSSLSASVGDRVTISCRASQTISRYLNWYQVKPGTAPKLLIYAASSLQTGVPSRFSASGSGADFTLTISSLQPEDFATYHCQQTYIIPYTFGQGTKVDIK
notes: full-length IgG from yeast; also called Antibody Number 315; Ab # 315
B6: ADI-18959 (antibody, V domains shown)
VH: QVQLVQSGAEVKKPGASVRVSCKVYGHTLSELSMHWVRQGPEGGLEWMGAFDHEDGEGIYPQKFQGRITMTADISTDTAHMELRSLRSEDTAVYYCATPTPVGATDFWGQGTLVTVSS
VL: DIRVTQSPSSLSASVGDRVTITCRASQSISSYLNWYQQKPGKAPKLLIYAASTLQRGGPSRFSGSGSGTDFTLSISSLQPEDFATYYCQQTYIIPYTFGQGTKLEIK
notes: full-length IgG from yeast; also called Antibody Number 310; Ab # 310
B7: ADI-18921 (antibody, V domains shown)
VH: QVQLVQSGSEVKKPGASVRLSCKVAGYSLSELSMHWVRQSPGKGLEWLGAFDHEDAEAIYAPRFQGRITMTADTSTDTAYMELSSLRSEDTAVYYCATPTPVGATDYWGQGTLVTVSS
VL: DIQMTQSPSSLSASVGDRVTITCRASQSISSYLNWYQQKPGKAPKLLIYAASSLQRGGPSRFSGSGSGTDFTLTISSLQPEDFATYYCQQSYIIPYTFGQGTKVDIK
notes: full-length IgG from yeast
B8: ADI-18957 (antibody, V domains shown)
VH: EVQLLESGGGLVKPGESLRLSCAASGFTLSGYYMNWVRQAPGRGLEWVSSISGGSNYINYADSVKGRFTISRDNAKNSLYLQMNSLRVEDTAVYYCARVHVDLVTTIFGVDFDFWGQGTLVTVSS
VL: QSVLTQPPSVSGAPGQRVTISCTGSSSNIGAGYDVHWYQQLPGTAPKLLIYGNTNRPAGVPDRFSGSKSGSSASLAITGLQAEDEADYYCQSYDSSLSGAIFGGGTKLTVL
notes: full-length IgG from yeast
B9: ADI-18907 (antibody, V domains shown)
VH: QVQLVQSGPEVKKPGSSVKVSCKASGGTFSSYAITWVRQAPGQGLEWMGGIIPSFDRVDYSRNFKGRVTFTADKSANTAYMELTNVRSDDTAVYYCARGCCGAVAGFQHWGQGTGVTVSS
VL: DIVLTQTPATLSLSPGETATLSCRASQSVTTYLAWYQQKPGQAPRLLIYDASNRATGVPTRFSGSGSGTDFTLTISSLEPEDYAIYYCQQRTTGVTFGGGTKVEIK
notes: full-length IgG from yeast; also called Antibody Number 262; Ab # 262
B10: ADI-18944 (antibody, V domains shown)
VH: QVQLVQSGAEVKKPGASVKVSCKTSGYTFSNYGISWLRQAPGQGLEWMAWISPYNGNTKSAQRFQGRVIMTTDTSTRTAHMEVKSLRTDDTATYYCARDPAVDAIPMLDYWGQGTTVTVSS
VL: DIQVTQSPLSLPVTLGQPASISCRSSQSLVYTDGNTYLSWFQQRPGQSPRRLIYRVSHRDSGVPDRFTGSGSGTDFTLIIRRVEAEDVGVYYCMQGTHWPLTFGGGTKVEIK
notes: full-length IgG from yeast
B11: ADI-18949 (antibody, V domains shown)
VH: QVQLVQSGAEVKKPGASVKVSCKTSGYTFSNYGISWLRQAPGQGLEWMAWISPYNGNTKSAQRFQGRVIMTTDTSTRTAHMEVKSLRTDDTATYYCARDPAVDAIPMLDYWGQGTMVTVSS
VL: EIVLTQSPLSLPVTLGQPASISCRSSQSLVYTDGNTYLSWFQQRPGQSPRRLIYRVSHRDSGVPDRFTGSGSGTDFTLIIRRVEAEDVGVYYCMQGTHWPLTFGGGTKVEIK
notes: full-length IgG from yeast
B12: ADI-18972 (antibody, V domains shown)
VH: QVQLVQSGAEVKKPGASVKVSCKTSGYTFSNYGISWLRQAPGQGLEWMAWISPYNGNTKSAQRFQGRVIMTTDTSTRTAHMEVKSLRTDDTATYYCARDPAVDAIPMLDYWGQGTLVTVSS
VL: DIQMTQSPLSLPVTLGQPASISCRSSQSLVYTDGNTYLSWFQQRPGQSPRRLIYRVSHRDSGVPDRFTGSGSGTDFTLIIRRVEAEDVGVYYCMQGTHWPLTFGGGTKLEIK
notes: full-length IgG from yeast; also called Antibody Number 320; Ab # 320
B13: ADI-18962 (antibody, V domains shown)
VH: QVQLVQSGGGLVKPEGSLRLSCAASGFTFSSYSMNWVRQAPGKGLEWVSSISSSSSYIYYADSVKGRFTISRDNAKNSLYLQMNSLRAEDTAVYYCARVSTELGYYYMDVWGKGTTVTVSS
VL: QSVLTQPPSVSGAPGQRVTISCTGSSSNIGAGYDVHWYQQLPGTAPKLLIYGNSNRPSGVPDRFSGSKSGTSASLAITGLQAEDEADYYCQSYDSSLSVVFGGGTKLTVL
notes: full-length IgG from yeast
B14: ADI-18884 (antibody, V domains shown)
VH: EVQLVESGAEMKKPGASVKVSCKASGYTFTNYAIHWVRQAPGQSLEWMGWINAGNGNTQYSQKFQGRVTFTRDTSASTVYMDLSSLRSEDTAVYYCARGQIVVIPRANFWFDPWGQGTLVTVSS
VL: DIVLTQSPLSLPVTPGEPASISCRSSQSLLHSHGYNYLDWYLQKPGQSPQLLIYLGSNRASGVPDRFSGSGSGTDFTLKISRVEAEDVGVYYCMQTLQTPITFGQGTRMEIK
notes: full-length IgG from yeast; also called Antibody Number 240; Ab # 240
B15: ADI-18956 (antibody, V domains shown)
VH: QVQLVQSGAELKKPGSSVKVSCKASADTFKSYAINWVRQAPGQGLEWMGEFIPIFGVSPSAQKFQGRVTITADRSTSTAYMELSSLKSDDSAIYYCATRLYTLGSPFDNWGQGTTVTVSS
VL: QPVLTQPRSVSGSPGQSVTISCTGTSSDVGDYDYVSWYQHLPGEVPKLIVYNVIKRPSGVPDRFSGSKSGNTASLTISGLQAEDEADYYCCSYAGRYIYVFGSGTKLTVL
notes: full-length IgG from yeast
B16: ADI-18879 (antibody, V domains shown)
VH: EVQLLESGGEVKKPGASVKVSCRASGYTFRNYGLTWVRQAPGQGLEWMGWISAYNGNTNYAQKFQGRVTLTTDTSTSTAYMELRSLRSDDTAVYFCARDVPGHGAAFMDVWGTGTTVTVSS
VL: DIQLTQSPLSLPVTLGQPASISCRSSQSLEASDTNIYLSWFQQRPGQSPRRLIYKISNRDSGVPDRFSGSGSGTHFTLRISRVEADDVAVYYCMQGTHWPPAFGQGTKVDIK
notes: full-length IgG from yeast
B17: ADI-18903 (antibody, V domains shown)
VH: EVQLVESGGEVKKPGASVKVSCRASGYTFRNYGLTWVRQAPGQGLEWMGWISAYNGNTNYAQKFQGRVTLTTDTSTSTAYMELRSLRSDDTAVYFCARDVPGHGAAFMDVWGTGTTVTVSS
VL: ETTLTQSPLSLPVTLGQPASISCRSSQSLEASDTNIYLSWFQQRPGQSPRRLIYKISNRDSGVPDRFSGSGSGTHFTLRISRVEADDVAVYYCMQGTHWPPAFGQGTKLEIK
notes: full-length IgG from yeast

Legend:
[1] = molecular target: RSV F protein of subtype A (strain A2) on recombinant mKate-RSV virus (Respiratory syncytial virus subtype A …, UniProt P03420 26-574); assay: cell-based or functional assay
[2] = molecular target: RSV F protein of subtype B (18537) on recombinant mKate-RSV virus (Respiratory syncytial virus subtype B …, UniProt P13843 26-574); assay: cell-based or functional assay
[3] = molecular target: T1, RSV F subtype A, furin-cleaved ectodomain stabilized in the prefusion conformation (DS-Cav1) (Respiratory syncytial virus subtype A, UniProt P03420 26-524); assay: BLI, IgG on AHQ sensor, 100 nM antigen
T1 construct: extracellular domain; Trimeric soluble antigen; also called Prefusion subtype A

[4] = molecular target: T2, RSV F subtype B, furin-cleaved ectodomain stabilized in the prefusion conformation (DS-Cav1) (Respiratory syncytial virus subtype B); assay: BLI, IgG on AHQ sensor, 100 nM antigen
T2 construct: extracellular domain; Trimeric soluble antigen; also called Prefusion subtype B

Binder | Neut IC50 (µg/ml) subtype A [1] | Neut IC50 (µg/ml) subtype B [2] | Kd [3] | Kd [4]
B1 | 0.04 µg/mL | 0.035 µg/mL | 0.736 nM | 0.764 nM
B2 | > 10 µg/mL | 0.767 µg/mL |  | 10.6 nM
B3 | 0.345 µg/mL | 0.123 µg/mL |  | 0.327 nM
B4 | 0.027 µg/mL | 0.043 µg/mL |  | 0.725 nM
B5 | 6.74 µg/mL | 3.65 µg/mL | 0.809 nM | 
B6 | 7.21 µg/mL | 2.26 µg/mL | 4.68 nM | 
B7 | 1.7 µg/mL | 1.17 µg/mL | 5.75 nM | 
B8 | 1.34 µg/mL | 6.08 µg/mL |  | 0.324 nM
B9 | 3.3 µg/mL | > 10 µg/mL |  | 0.204 nM
B10 | 0.026 µg/mL | 0.074 µg/mL |  | 0.337 nM
B11 | 0.04 µg/mL | 0.076 µg/mL |  | 0.308 nM
B12 | 0.016 µg/mL | 0.107 µg/mL |  | 0.368 nM
B13 | 4.44 µg/mL | > 10 µg/mL |  | 22.8 nM
B14 | 0.073 µg/mL | 0.239 µg/mL |  | 0.204 nM
B15 | > 10 µg/mL | > 10 µg/mL |  | 0.224 nM
B16 | 0.041 µg/mL | 0.103 µg/mL | 0.312 nM | 0.358 nM
B17 | 0.036 µg/mL | 0.118 µg/mL | 0.324 nM | 0.272 nM
